In paper PMC7237784:
Positions count from the first letter of the chain named.

Columns and labels:
[1] = target: T1, AcFur SI H31A;H88A (Acidithiobacillus caldus MTH-04) (UniProt A0A060A2G1); assay: EMSA; conditions: EMSA: 0.4 nM DNA, 0/2/4/8 nM protein, 10 mM Tris-HCl pH 8.0, 100 mM NaCl, 1 mM MnCl2, room temperature, 30 min; 5% native PAGE in 0.5x TBE, EB stain
T1 sequence: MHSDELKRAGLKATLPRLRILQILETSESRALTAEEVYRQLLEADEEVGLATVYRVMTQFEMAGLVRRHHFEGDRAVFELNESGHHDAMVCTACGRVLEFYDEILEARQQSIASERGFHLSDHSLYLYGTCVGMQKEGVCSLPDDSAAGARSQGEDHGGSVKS

[2] = target: T2, AcFur SII E106A;H123A (Acidithiobacillus caldus MTH-04) (UniProt A0A060A2G1); assay: EMSA; conditions: EMSA: 0.4 nM DNA, 0/2/4/8 nM protein, 10 mM Tris-HCl pH 8.0, 100 mM NaCl, 1 mM MnCl2, room temperature, 30 min; 5% native PAGE in 0.5x TBE, EB stain
T2 sequence: T1 sequence with A31H, A88H, E106A, H123A

## TTCCACCTGCTCACCTGCGCGGGCCGAGCTCAGGCGGTGGGGGGAAAGGACTTGGGTCATGACGCTCACACTCCCAACGAGTTCGTGGGGACACTATATCATAATGGTAATCATTTGCAATATCAGCCCAAGGGAGGGCCGTCCCGGCGGACGCAGCCGCCGACGCTCAGTCCAGGTCGCCGTGCCTGGGTGTAAAACGC (double strand) [feoABC operator (feoA promoter)]
[1]
  binding: no binding
[2]
  binding: binds more weakly

## GCGTAGGACGTCCTTGATAACTGCAACTAAGTTGCATATATTCCGCACGACCACTCCGCGCGTCCCTGGGGAGCTTGACCGGTAAGTCTATTTATTGAATGATAATGATTAGCATTTATATTATTTGGAGAGATTGTCCATGCGTCGTATACCCCTCTGTGCGCTGCTGAGCACCATGCTTGCTTCCAGC (double strand) [feoP promoter]
[1]
  binding: no binding
[2]
  binding: binds more weakly
